Assay results reported in paper PMC7581431.

B1: Nkd1-BirA* [murine] / DVL1 [human (endogenous in Flp-In-T-REx-293)] (parent)
chain 1: MGKLHSKPAAVCKRRESPEGDSFAVSAAWARKGIEEWIGRQRCPGSVSGPRQLRLAGTVGRGTRELVGDTSREALGEEDEDDFPLEVALPPEKIDSLGSGDEKRMERLSEPGQASKKQLKFEELQCDVSVEEDSRQEWTFTLYDFDNNGKVTREDITSLLHTIYEVVDSSVNHSPTSSKTLRVKLTVAPDGSQSKRSVLFNHTDLQSTRPRADTKPAEELRGWEKKQRAPLRFQGDSHLEQPDCYHHCVDENIERRNHYLDLAGIENYTSQFGPGSPSVAQKSELPPRISNPTRSRSHEPEAAHIPHRRPQGVDPGSFHLLDTPFAKASELQQRLRGTQDGSKHFVRSPKAQGKNMGMGHGARGARSKPPLVPTTHTVSPSAHLATSPALLPTLAPLGHKKHKHRAKESQASCRGLQGPLAAGGSTVMGREQVRELPAVVVYESQAGQAVQRHEHHHHHEHHHHYHHFYQP
chain 2: MAETKIIYHMDEEETPYLVKLPVAPERVTLADFKNVLSNRPVHAYKFFFKSMDQDFGVVKEEIFDDNAKLPCFNGRVVSWLVLAEGAHSDAGSQGTDSHTDLPPPLERTGGIGDSRPPSFHPNVASSRDGMDNETGTESMVSHRRERARRRNREEAARTNGHPRGDRRRDVGLPPDSASTALSSELESSSFVDSDEDGSTSRLSSSTEQSTSSRLIRKHKRRRRKQRLRQADRASSFSSITDSTMSLNIVTVTLNMERHHFLGISIVGQSNDRGDGGIYIGSIMKGGAVAADGRIEPGDMLLQVNDVNFENMSNDDAVRVLREIVSQTGPISLTVAKCWDPTPRSYFTVPRADPVRPIDPAAWLSHTAALTGALPRYGTSPCSSAVTRTSSSSLTSSVPGAPQLEEAPLTVKSDMSAVVRVMQLPDSGLEIRDRMWLKITIANAVIGADVVDWLYTHVEGFKERREARKYASSLLKHGFLRHTVNKITFSEQCYYVFGDLCSNLATLNLNSGSSGTSDQDTLAPLPHPAAPWPLGQGYPYQYPGPPPCFPPAYQDPGFSYGSGSTGSQQSEGSKSSGSTRSSRRAPGREKERRAAGAGGSGSESDHTAPSGVGSSWRERPAGQLSRGSSPRSQASATAPGLPPPHPTTKAYTVVGGPPGGPPVRELAAVPPELTGSRQSFQKAMGNPCEFFVDIM
B2: Nkd1-BirA* [murine] / VANGL1 [human (endogenous in Flp-In-T-REx-293)] (parent)
chain 1: B1 chain 1
chain 2: MDTESTYSGYSYYSSHSKKSHRQGERTRERHKSPRNKDGRGSEKSVTIQPPTGEPLLGNDSTRTEEVQDDNWGETTTAITGTSEHSISQEDIARISKDMEDSVGLDCKRYLGLTVASFLGLLVFLTPIAFILLPPILWRDELEPCGTICEGLFISMAFKLLILLIGTWALFFRKRRADMPRVFVFRALLLVLIFLFVVSYWLFYGVRILDSRDRNYQGIVQYAVSLVDALLFIHYLAIVLLELRQLQPMFTLQVVRSTDGESRFYSLGHLSIQRAALVVLENYYKDFTIYNPNLLTASKFRAAKHMAGLKVYNVDGPSNNATGQSRAMIAAAARRRDSSHNELYYEEAEHERRVKKRKARLVVAVEEAFIHIQRLQAEEQQKAPGEVMDPREAAQAIFPSMARALQKYLRITRQQNYHSMESILQHLAFCITNGMTPKAFLERYLSAGPTLQYDKDRWLSTQWRLVSDEAVTNGLRDGIVFVLKCLDFSLVVNVKKIPFIILSEEFIDPKSHKFVLRLQSETSV
B3: Nkd1-BirA* [murine] / DVL3 [human (endogenous in Flp-In-T-REx-293)] (parent)
chain 1: B1 chain 1
chain 2: MGETKIIYHLDGQETPYLVKLPLPAERVTLADFKGVLQRPSYKFFFKSMDDDFGVVKEEISDDNAKLPCFNGRVVSWLVSAEGSHPDPAPFCADNPSELPPPMERTGGIGDSRPPSFHPHAGGGSQENLDNDTETDSLVSAQRERPRRRDGPEHATRLNGTAKGERRREPGGYDSSSTLMSSELETTSFFDSDEDDSTSRFSSSTEQSSASRLMRRHKRRRRKQKVSRIERSSSFSSITDSTMSLNIITVTLNMEKYNFLGISIVGQSNERGDGGIYIGSIMKGGAVAADGRIEPGDMLLQVNEINFENMSNDDAVRVLREIVHKPGPITLTVAKCWDPSPRGCFTLPRSEPIRPIDPAAWVSHTAAMTGTFPAYGMSPSLSTITSTSSSITSSIPDTERLDDFHLSIHSDMAAIVKAMASPESGLEVRDRMWLKITIPNAFIGSDVVDWLYHNVEGFTDRREARKYASNLLKAGFIRHTVNKITFSEQCYYIFGDLCGNMANLSLHDHDGSSGASDQDTLAPLPHPGAAPWPMAFPYQYPPPPHPYNPHPGFPELGYSYGGGSASSQHSEGSRSSGSNRSGSDRRKEKDPKAGDSKSGGSGSESDHTTRSSLRGPRERAPSERSGPAASEHSHRSHHSLASSLRSHHTHPSYGPPGVPPLYGPPMLMMPPPPAAMGPPGAPPGRDLASVPPELTASRQSFRMAMGNPSEFFVDVM
B4: Nkd1-BirA* [murine] / VANGL2 [human (endogenous in Flp-In-T-REx-293)] (parent)
chain 1: B1 chain 1
chain 2: MDTESQYSGYSYKSGHSRSSRKHRDRRDRHRSKSRDGGRGDKSVTIQAPGEPLLDNESTRGDERDDNWGETTTVVTGTSEHSISHDDLTRIAKDMEDSVPLDCSRHLGVAAGATLALLSFLTPLAFLLLPPLLWREELEPCGTACEGLFISVAFKLLILLLGSWALFFRRPKASLPRVFVLRALLMVLVFLLVVSYWLFYGVRILDARERSYQGVVQFAVSLVDALLFVHYLAVVLLELRQLQPQFTLKVVRSTDGASRFYNVGHLSIQRVAVWILEKYYHDFPVYNPALLNLPKSVLAKKVSGFKVYSLGEENSTNNSTGQSRAVIAAAARRRDNSHNEYYYEEAEHERRVRKRRARLVVAVEEAFTHIKRLQEEEQKNPREVMDPREAAQAIFASMARAMQKYLRTTKQQPYHTMESILQHLEFCITHDMTPKAFLERYLAAGPTIQYHKERWLAKQWTLVSEEPVTNGLKDGIVFLLKRQDFSLVVSTKKVPFFKLSEEFVDPKSHKFVMRLQSETSV
B5: Nkd1-BirA* [murine] / DVL2 (endogenous) [human (endogenous in Flp-In-T-REx-293)] (parent)
chain 1: B1 chain 1
chain 2: MAGSSTGGGGVGETKVIYHLDEEETPYLVKIPVPAERITLGDFKSVLQRPAGAKYFFKSMDQDFGVVKEEISDDNARLPCFNGRVVSWLVSSDNPQPEMAPPVHEPRAELAPPAPPLPPLPPERTSGIGDSRPPSFHPNVSSSHENLEPETETESVVSLRRERPRRRDSSEHGAGGHRTGGPSRLERHLAGYESSSTLMTSELESTSLGDSDEEDTMSRFSSSTEQSSASRLLKRHRRRRKQRPPRLERTSSFSSVTDSTMSLNIITVTLNMEKYNFLGISIVGQSNERGDGGIYIGSIMKGGAVAADGRIEPGDMLLQVNDMNFENMSNDDAVRVLRDIVHKPGPIVLTVAKCWDPSPQAYFTLPRNEPIQPIDPAAWVSHSAALTGTFPAYPGSSSMSTITSGSSLPDGCEGRGLSVHTDMASVTKAMAAPESGLEVRDRMWLKITIPNAFLGSDVVDWLYHHVEGFPERREARKYASGLLKAGLIRHTVNKITFSEQCYYVFGDLSGGCESYLVNLSLNDNDGSSGASDQDTLAPLPGATPWPLLPTFSYQYPAPHPYSPQPPPYHELSSYTYGGGSASSQHSEGSRSSGSTRSDGGAGRTGRPEERAPESKSGSGSESEPSSRGGSLRRGGEASGTSDGGPPPSRGSTGGAPNLRAHPGLHPYGPPPGMALPYNPMMVVMMPPPPPPVPPAVQPPGAPPVRDLGSVPPELTASRQSFHMAMGNPSEFFVDVM
B6: Nkd1-BirA* [murine] / NBR1 [human (endogenous in Flp-In-T-REx-293)] (parent)
chain 1: B1 chain 1
chain 2: MEPQVTLNVTFKNEIQSFLVSDPENTTWADIEAMVKVSFDLNTIQIKYLDEENEEVSINSQGEYEEALKMAVKQGNQLQMQVHEGHHVVDEAPPPVVGAKRLAARAGKKPLAHYSSLVRVLGSDMKTPEDPAVQSFPLVPCDTDQPQDKPPDWFTSYLETFREQVVNETVEKLEQKLHEKLVLQNPSLGSCPSEVSMPTSEETLFLPENQFSWHIACNNCQRRIVGVRYQCSLCPSYNICEDCEAGPYGHDTNHVLLKLRRPVVGSSEPFCHSKYSTPRLPAALEQVRLQKQVDKNFLKAEKQRLRAEKKQRKAEVKELKKQLKLHRKIHLWNSIHGLQSPKSPLGRPESLLQSNTLMLPLQPCTSVMPMLSAAFVDENLPDGTHLQPGTKFIKHWRMKNTGNVKWSADTKLKFMWGNLTLASTEKKDVLVPCLKAGHVGVVSVEFIAPALEGTYTSHWRLSHKGQQFGPRVWCSIIVDPFPSEESPDNIEKGMISSSKTDDLTCQQEETFLLAKEERQLGEVTEQTEGTAACIPQKAKNVASERELYIPSVDLLTAQDLLSFELLDINIVQELERVPHNTPVDVTPCMSPLPHDSPLIEKPGLGQIEEENEGAGFKALPDSMVSVKRKAENIASVEEAEEDLSGTQFVCETVIRSLTLDAAPDHNPPCRQKSLQMTFALPEGPLGNEKEEIIHIAEEEAVMEEEEDEEDEEEEDELKDEVQSQSSASSEDYIIILPECFDTSRPLGDSMYSSALSQPGLERGAEGKPGVEAGQEPAEAGERLPGGENQPQEHSISDILTTSQTLETVPLIPEVVELPPSLPRSSPCVHHHGSPGVDLPVTIPEVSSVPDQIRGEPRGSSGLVNSRQKSYDHSRHHHGSSIAGGLVKGALSVAASAYKALFAGPPVTAQPIISEDQTAALMAHLFEMGFCDRQLNLRLLKKHNYNILQVVTELLQLNNNDWYSQRY

Variants of: B1
Test: BioID proximity labeling (mass spectrometry)
Details: with DVL1 [human (endogenous in Flp-In-T-REx-293)]; +Wnt3a

response (unweighted spectral counts)	Variant
127	chain 1 G2A

Variants of: B2
Test: BioID proximity labeling (mass spectrometry)
Details: with VANGL1 [human (endogenous in Flp-In-T-REx-293)]; +Wnt3a

response (unweighted spectral counts)	Variant
7	chain 1 G2A

Variants of: B3
Test: BioID proximity labeling (mass spectrometry)
Details: with DVL3 [human (endogenous in Flp-In-T-REx-293)]; +Wnt3a

response (unweighted spectral counts)	Variant
240	chain 1 G2A

Variants of: B4
Test: BioID proximity labeling (mass spectrometry)
Details: with VANGL2 [human (endogenous in Flp-In-T-REx-293)]; +Wnt3a

response (unweighted spectral counts)	Variant
3	chain 1 G2A

Variants of: B5
Test: BioID proximity labeling (mass spectrometry)
Details: with DVL2 (endogenous) [human (endogenous in Flp-In-T-REx-293)]; +Wnt3a

response (unweighted spectral counts)	Variant
303	chain 1 G2A

Variants of: B6
Test: BioID proximity labeling (mass spectrometry)
Details: with NBR1 [human (endogenous in Flp-In-T-REx-293)]; +Wnt3a

response (unweighted spectral counts)	Variant
24	chain 1 G2A
